From patent US20140294898A1 (published 2014)
Positions of bridges follow the written chain, without caps; N, C: chain ends. Non-standard residues stand in square brackets, D forms with d. NMeNle = CCCC[C@H](NC)C(=O)O; αMeP = C[C@@]1(C(=O)O)CCCN1; NMeA = CN[C@@H](C)C(=O)O; Aze = O=C(O)[C@@H]1CCN1; Sar = CNCC(=O)O

Target: T1, hPDL1(19-239)-TVMV-His (human, UniProt Q9NZQ7 19-239)
T1 construct: The text says amino acids 18-239, the construct name says 19-239; Expressed in HEK293T cells; Used at 10 nM final in the HTRF assay; also called PD-L1-His; PD-L1-TVMV-His
Assay: HTRF competition, PD-1-Ig binding to PD-L1-His
Protocol: All binding studies were performed in an HTRF assay buffer consisting of dPBS supplemented with 0.1% (w/v) bovine serum albumin and 0.05% (v/v) Tween-20. […] PD-L1 fusion proteins from either human, cynomologous macaques, or mouse were used. HTRF detection was achieved using europium crypate-labeled anti-Ig monoclonal antibody (1 nM final) and allophycocyanin (APC) labeled anti-His monoclonal antibody (20 nM final). Antibodies were diluted in HTRF detection buffer and 5 μl was dispensed on top of binding reaction. The reaction was allowed to equilibrate for 30 minutes and signal (665 nm/620 nm ratio) was obtained using an EnVision fluorometer. […]
HTRF Experiments were performed essentially as outlined supra. Variant macrocyclic peptides were created as outlined herein.

T1 sequence (Q9NZQ7 other isoform, or with tags, fused parts or gaps limits assumed): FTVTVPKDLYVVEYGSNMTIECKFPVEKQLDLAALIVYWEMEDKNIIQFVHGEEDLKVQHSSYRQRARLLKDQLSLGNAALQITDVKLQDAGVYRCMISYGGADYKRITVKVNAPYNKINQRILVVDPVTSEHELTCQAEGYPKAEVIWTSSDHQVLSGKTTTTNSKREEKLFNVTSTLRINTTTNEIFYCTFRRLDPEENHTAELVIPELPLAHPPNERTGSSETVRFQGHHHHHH

B1: Compound No. 5 (peptide)
peptide: {CH2CO}-A[NMeA]NPHL[Sar]WSW[NMeNle][NMeNle]RCG-NH2
modifications: thioether N-14
SMILES: CCCC[C@H]1C(=O)N(C)[C@@H](CCCC)C(=O)N[C@@H](CCCNC(=N)N)C(=O)N[C@H](C(=O)NCC(N)=O)CSCC(=O)N[C@@H](C)C(=O)N(C)[C@@H](C)C(=O)N[C@@H](CC(N)=O)C(=O)N2CCC[C@H]2C(=O)N[C@@H](Cc2c[nH]cn2)C(=O)N[C@@H](CC(C)C)C(=O)N(C)CC(=O)N[C@@H](Cc2c[nH]c3ccccc23)C(=O)N[C@@H](CO)C(=O)N[C@@H](Cc2c[nH]c3ccccc23)C(=O)N1C
  IC50: 6500 nM

B2: Compound No. 7 (peptide)
peptide: {CH2CO}-F[Sar]NPHL[Sar]WSW[NMeNle][NMeNle]RCG-NH2
modifications: thioether N-14
SMILES: CCCC[C@H]1C(=O)N(C)[C@@H](CCCC)C(=O)N[C@@H](CCCNC(=N)N)C(=O)N[C@H](C(=O)NCC(N)=O)CSCC(=O)N[C@@H](Cc2ccccc2)C(=O)N(C)CC(=O)N[C@@H](CC(N)=O)C(=O)N2CCC[C@H]2C(=O)N[C@@H](Cc2c[nH]cn2)C(=O)N[C@@H](CC(C)C)C(=O)N(C)CC(=O)N[C@@H](Cc2c[nH]c3ccccc23)C(=O)N[C@@H](CO)C(=O)N[C@@H](Cc2c[nH]c3ccccc23)C(=O)N1C
  IC50: 55 nM

B3: Compound No. 10 (peptide)
peptide: {CH2CO}-F[NMeA]NPAL[Sar]WSW[NMeNle][NMeNle]RCG-NH2
modifications: thioether N-14
SMILES: CCCC[C@H]1C(=O)N(C)[C@@H](CCCC)C(=O)N[C@@H](CCCNC(=N)N)C(=O)N[C@H](C(=O)NCC(N)=O)CSCC(=O)N[C@@H](Cc2ccccc2)C(=O)N(C)[C@@H](C)C(=O)N[C@@H](CC(N)=O)C(=O)N2CCC[C@H]2C(=O)N[C@@H](C)C(=O)N[C@@H](CC(C)C)C(=O)N(C)CC(=O)N[C@@H](Cc2c[nH]c3ccccc23)C(=O)N[C@@H](CO)C(=O)N[C@@H](Cc2c[nH]c3ccccc23)C(=O)N1C
  IC50: 16 nM

B4: Compound No. 8 (peptide)
peptide: {CH2CO}-F[NMeA]APHL[Sar]WSW[NMeNle][NMeNle]RCG-NH2
modifications: thioether N-14
SMILES: CCCC[C@H]1C(=O)N(C)[C@@H](CCCC)C(=O)N[C@@H](CCCNC(=N)N)C(=O)N[C@H](C(=O)NCC(N)=O)CSCC(=O)N[C@@H](Cc2ccccc2)C(=O)N(C)[C@@H](C)C(=O)N[C@@H](C)C(=O)N2CCC[C@H]2C(=O)N[C@@H](Cc2c[nH]cn2)C(=O)N[C@@H](CC(C)C)C(=O)N(C)CC(=O)N[C@@H](Cc2c[nH]c3ccccc23)C(=O)N[C@@H](CO)C(=O)N[C@@H](Cc2c[nH]c3ccccc23)C(=O)N1C
  IC50: 31 nM

B5: Compound No. 49 (peptide)
peptide: {CH2CO}-F[NMeA]N[αMeP]HL[Sar]WSW[NMeNle][NMeNle]RCG-NH2
modifications: thioether N-14
SMILES: CCCC[C@H]1C(=O)N(C)[C@@H](CCCC)C(=O)N[C@@H](CCCNC(=N)N)C(=O)N[C@H](C(=O)NCC(N)=O)CSCC(=O)N[C@@H](Cc2ccccc2)C(=O)N(C)[C@@H](C)C(=O)N[C@@H](CC(N)=O)C(=O)N2CCC[C@@]2(C)C(=O)N[C@@H](Cc2c[nH]cn2)C(=O)N[C@@H](CC(C)C)C(=O)N(C)CC(=O)N[C@@H](Cc2c[nH]c3ccccc23)C(=O)N[C@@H](CO)C(=O)N[C@@H](Cc2c[nH]c3ccccc23)C(=O)N1C
  IC50: 34 nM

B6: Compound No. 50 (peptide)
peptide: {CH2CO}-F[NMeA]N[Aze]HL[Sar]WSW[NMeNle][NMeNle]RCG-NH2
modifications: thioether N-14
SMILES: CCCC[C@H]1C(=O)N(C)[C@@H](CCCC)C(=O)N[C@@H](CCCNC(=N)N)C(=O)N[C@H](C(=O)NCC(N)=O)CSCC(=O)N[C@@H](Cc2ccccc2)C(=O)N(C)[C@@H](C)C(=O)N[C@@H](CC(N)=O)C(=O)N2CC[C@H]2C(=O)N[C@@H](Cc2c[nH]cn2)C(=O)N[C@@H](CC(C)C)C(=O)N(C)CC(=O)N[C@@H](Cc2c[nH]c3ccccc23)C(=O)N[C@@H](CO)C(=O)N[C@@H](Cc2c[nH]c3ccccc23)C(=O)N1C
  IC50: 71 nM
